The numbers were not newly measured in article PMC6829319, which cites them from elsewhere.

Usually Kd stands for the constant that tells how readily two partners part at equilibrium.

The data set has as its target CdiA toxin (Escherichia coli) (UniProt Q0T963).

Chain of CysK (P0ABK5 2-323): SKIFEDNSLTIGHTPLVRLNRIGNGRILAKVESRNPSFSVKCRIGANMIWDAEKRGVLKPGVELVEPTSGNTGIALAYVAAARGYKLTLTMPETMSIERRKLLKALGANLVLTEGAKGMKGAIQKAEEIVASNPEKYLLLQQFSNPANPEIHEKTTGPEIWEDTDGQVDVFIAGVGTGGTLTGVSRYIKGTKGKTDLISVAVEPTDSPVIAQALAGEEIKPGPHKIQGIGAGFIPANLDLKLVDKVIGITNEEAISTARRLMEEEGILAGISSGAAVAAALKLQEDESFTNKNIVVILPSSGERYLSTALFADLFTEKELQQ
Chain of CdiA toxin (Escherichia coli) (Q0T963 3016-3242): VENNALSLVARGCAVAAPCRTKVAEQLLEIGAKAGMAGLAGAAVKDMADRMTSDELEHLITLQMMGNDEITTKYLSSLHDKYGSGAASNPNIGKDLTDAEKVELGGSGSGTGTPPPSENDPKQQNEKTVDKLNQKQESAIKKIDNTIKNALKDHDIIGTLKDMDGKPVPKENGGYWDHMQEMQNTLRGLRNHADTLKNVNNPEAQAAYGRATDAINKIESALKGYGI

For the substance CysK (from UniProt P0ABK5), the Kd is 5 nM.
